Test results published in patent US20170296640A1 (IMMATICS BIOTECHNOLOGIES, published 2017).

Target: T1, HLA-A*02:01 (peptide-receptive MHC class I monomer after UV cleavage of the UV-sensitive ligand) (human)
T1 construct: MHC monomers loaded by UV-ligand exchange and captured on streptavidin plates
Assay: UV ligand-exchange ELISA; exchange yield grade (+ >=10%, ++ >=20%, +++ >=50%, ++++ >=75%)
Summary of the method: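 UV-exchange pMHC monomers, 100-fold diluted → streptavidin capture 1 h 37 °C → HRP anti-β2m 2 ug/ml 1 h 37 °C → TMB, A450. Yield from HLA-A*02:01/MLA-001 monomer standard curve, 15-500 ng/ml. Only stably bound peptides keep β2m-containing complexes intact.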

Row | Binder | peptide exchange yield [%]
1 | GLFARIIMI [GLFARIIMI (SEQ ID NO: 87)] | 20 to 50
2 | KLLGSLQLL [KLLGSLQLL (SEQ ID NO: 93)] | ≥ 75
3 | FLLDLDPLL [FLLDLDPLL (SEQ ID NO: 9)] | 50 to 75
4 | FLQELQLEHA [FLQELQLEHA (SEQ ID NO: 84)] | 50 to 75
5 | TLLAFPLLL [TLLAFPLLL (SEQ ID NO: 69)] | ≥ 75
6 | RLIRTIAAI [RLIRTIAAI (SEQ ID NO: 100)] | 50 to 75
7 | ALADLVPVDVVV [ALADLVPVDVVV (SEQ ID NO: 76)] | ≥ 75
8 | NLLGMIFSM [NLLGMIFSM (SEQ ID NO: 7)] | ≥ 75
9 | QIAAFLFTV [QIAAFLFTV (SEQ ID NO: 68)] | ≥ 75
10 | MLQDGIARL [MLQDGIARL (SEQ ID NO: 98)] | 50 to 75
11 | GLAPAEVVVATVA [GLAPAEVVVATVA (SEQ ID NO: 85)] | 50 to 75
12 | FLIDGSSSV [FLIDGSSSV (SEQ ID NO: 82)] | 50 to 75
13 | VLLDYVGNVQL [VLLDYVGNVQL (SEQ ID NO: 71)] | ≥ 75
14 | SLDLRPLEV [SLDLRPLEV (SEQ ID NO: 74)] | ≥ 75
15 | TLITLPLLFL [TLITLPLLFL (SEQ ID NO: 6)] | 50 to 75
16 | YLGEEYPEV [YLGEEYPEV (SEQ ID NO: 73)] | 50 to 75
17 | TLQEETAVYL [TLQEETAVYL (SEQ ID NO: 72)] | 20 to 50
18 | SLLNKDLSL [SLLNKDLSL (SEQ ID NO: 61)] | ≥ 75
19 | AMKEEKEQL [AMKEEKEQL (SEQ ID NO: 79)] | 20 to 50
20 | LLFDLIPVVSV [LLFDLIPVVSV (SEQ ID NO: 95)] | 50 to 75
21 | KLAPIPVEL [KLAPIPVEL (SEQ ID NO: 66)] | ≥ 75
22 | QLAPFLPQL [QLAPFLPQL (SEQ ID NO: 58)] | 50 to 75
23 | GLFDNRSGLPEA [GLFDNRSGLPEA (SEQ ID NO: 88)] | 50 to 75
24 | HLSSTTAQV [HLSSTTAQV (SEQ ID NO: 91)] | 20 to 50

Row | Binder | peptide exchange yield [%]
25 | LLNFSPGNL [LLNFSPGNL (SEQ ID NO: 97)] | 10 to 20
26 | FIFSYITAV [FIFSYITAV (SEQ ID NO: 81)] | 20 to 50
27 | AMEEAVAQV [AMEEAVAQV (SEQ ID NO: 78)] | 50 to 75
28 | FLMDDNMSNTL [FLMDDNMSNTL (SEQ ID NO: 83)] | 50 to 75
29 | ALLDVSNNYGI [ALLDVSNNYGI (SEQ ID NO: 77)] | ≥ 75
30 | LLATVNVAL [LLATVNVAL (SEQ ID NO: 67)] | ≥ 75
31 | KLLFEIASA [KLLFEIASA (SEQ ID NO: 92)] | 50 to 75
32 | LLAGQATTAYF [LLAGQATTAYF (SEQ ID NO: 94)] | 50 to 75
33 | YLFDEIDQA [YLFDEIDQA (SEQ ID NO: 80)] | 50 to 75
34 | ALAPYLDLL [ALAPYLDLL (SEQ ID NO: 62)] | ≥ 75
35 | GLTALHVAV [GLTALHVAV (SEQ ID NO: 89)] | 50 to 75
36 | NLTDVSPDL [NLTDVSPDL (SEQ ID NO: 65)] | 50 to 75
37 | LLLNENESLFL [LLLNENESLFL (SEQ ID NO: 96)] | 50 to 75
38 | HLDEVFLEL [HLDEVFLEL (SEQ ID NO: 90)] | 50 to 75
39 | VLIEILQKA [VLIEILQKA (SEQ ID NO: 70)] | ≥ 75
40 | QLYDGATALFL [QLYDGATALFL (SEQ ID NO: 99)] | 20 to 50
41 | SLLIDVITV [SLLIDVITV (SEQ ID NO: 60)] | 50 to 75
42 | RLHREVAQV [RLHREVAQV (SEQ ID NO: 59)] | 50 to 75
43 | GLATIRAYL [GLATIRAYL (SEQ ID NO: 86)] | 50 to 75
44 | ALYAVIEKA [ALYAVIEKA (SEQ ID NO: 8)] | 50 to 75
45 | ALIEEAYGL [ALIEEAYGL (SEQ ID NO: 63)] | 50 to 75
46 | AALKYIPSV [AALKYIPSV (SEQ ID NO: 75)] | 50 to 75
47 | LQIGDFVSV [LQIGDFVSV (SEQ ID NO: 57)] | ≥ 75
48 | FLVEVSNDV [FLVEVSNDV (SEQ ID NO: 64)] | ≥ 75
